Test results as given in US9089613B2, “Drug activation system” (BANGOR UNIVERSITY, priority 2009, dated 2015).

Test: Enzyme reactivity to prodrugs before and after attachment to colloidal gold (UV/Vis, NADH oxidation at 340 nm, hydroxylamine formation at 420 nm)
Type: biochemical
Conditions: for Specific activity: CB1954 prodrug, excess NADH, 37° C., bound samples on 20 nm gold colloid at molar ratio 87:1 enzymes:gold; for Retained activity (%): compared to the same concentration of enzyme free in solution, CB1954, molar ratio 87:1 enzymes:gold
Protocol: The ability of the different nitroreductases to metabolise the selected prodrugs is assessed as the conversion of NADH to NAD^+ by UV-vis spectra. The kinetic parameters of the purified enzymes are measured by UV-vis spectra before and after their attachment to gold particles based on their ability to use NADH or an alternative cofactor such as for example nicotinic acid riboside for the reduction of the prodrugs.
For these experiments, a 300 molar equivalents of enzyme were incubated with gold colloid, as this appeared to be the minimum amount of enzyme to cover the gold nanoparticle surface as determined by UV/Vis spectrometry, electrophoresis, and stability experiments. 3.206 nmol of the NfnB and cys-NfnB enzymes in ultra pure water were incubated with 1.5 ml 20 nm Naked Gold® (7.125×10^−3 μM) at a temperature of 4° C. overnight. As controls, the same treatment was carried out for NfnB and cys-NfnB in the absence of gold colloid. The next day the solutions were divided in half and each made up to a total volume of 970 μl using ultra pure water. To each sample, 20 μl of NADH (10 mM) were added and incubated at a temperature of 37° C. for 5 min. The absorbance spectra (750 nm-200 nm) were recorded every 1.5 min for 20 min upon the addition of 10 μl CB 1954 (10 mM) or 20 μl SN 23862 (5 mM) to the test sample, and an equivalent volume of dimethyl sulfoxide (DMSO) to the reference solution. The oxidation of NADH, measured as the decrease at 340 nm, was used as an indication of reactivity of the enzyme for the substrate. The reactivity experiments were done for enzyme: gold conjugate solutions and for enzymes free in solution.
The ability of both recombinant NfnB and cys-NfnB to activate the CB1954 prodrug, before and after attachment to the gold colloid were compared. The free enzyme is known to be active as a dimer in which each monomer is closely associated with a flavin mononucleotide (FMN) molecule, and has two substrate binding pockets as explained in Lovering et al. (Lovering A. L., Hyde E. I., Searle P. F. and White S. A., in Journal of Molecular Biology, 309: 203-213, 2001) or in Zenno et al. (Zenno S, Koike H, Tanokura M and Saigo' K, in Journal of Biochemistry, 120: 736-744, 1996). […]
The formation of hydroxylamine products was monitored at 420 nm using UV/Vis spectroscopy in the presence of enzyme and excess NADH as previously described. […]
It was observed that both the NADH and CB1954 substrates were consumed in the presence of recombinant NfnB, with the simultaneous production of the hydroxylamine product. The same experiment was performed for recombinant NfnB immobilised onto the gold colloid at a molar ratio of 87:1 enzymes to gold, to ensure that any activity measured was not due to excess enzyme free in solution. […]

| Retained activity (%) | Molecule | Specific activity [µmol/min/mg] |
| --- | --- | --- |
| 100 | NfnB (unbound): his-tagged wildtype NfnB nitroreductase from Escherichia coli K12, free in solution (protein, UniProt P38489 1-217, looked up, His tag, his-tagged wildtype NfnB nitroreductase from Escherichia coli K12, free in solution) Oxygen-insensitive NAD(P)H …: MDIISVALKRHSTKAFDASKKLTPEQAEQIKTLLQYSPSSTNSQPWHFIVASTEEGKARVAKSAAGNYVFNERKMLDASHVVVFCAKTAMDDVWLKLVVDQEDADGRFATPEAKAANDKGRKFFADMHRKDLHDDAEWMAKQVYLNVGNFLLGVAALGLDAVPIEGFDAAILDAEFGLKEKGYTSLVVVPVGHHSVEDFNATLPKSRLPQNITLTEV | 0.169 |
| 99.5 | NfnB (bound to gold): recombinant NfnB nitroreductase immobilised onto 20 nm gold colloid (conjugate, UniProt P38489 1-217, looked up, immobilised on gold colloid, recombinant NfnB nitroreductase immobilised onto 20 nm gold colloid) Oxygen-insensitive NAD(P)H …: MDIISVALKRHSTKAFDASKKLTPEQAEQIKTLLQYSPSSTNSQPWHFIVASTEEGKARVAKSAAGNYVFNERKMLDASHVVVFCAKTAMDDVWLKLVVDQEDADGRFATPEAKAANDKGRKFFADMHRKDLHDDAEWMAKQVYLNVGNFLLGVAALGLDAVPIEGFDAAILDAEFGLKEKGYTSLVVVPVGHHSVEDFNATLPKSRLPQNITLTEV | 0.168 |
